This note sets out measurements from patent US20060183664A1, “Pharmaceutical composition for delayed hypersensitivity” (priority 2001, published 2006).

The target in this experiment is T1, PAR-2 (Homo sapiens, UniProt P55085).
T1 construct: expressed in transfected cells; host or cells: NCTC2544 cells
T1 sequence (P55085 26-397): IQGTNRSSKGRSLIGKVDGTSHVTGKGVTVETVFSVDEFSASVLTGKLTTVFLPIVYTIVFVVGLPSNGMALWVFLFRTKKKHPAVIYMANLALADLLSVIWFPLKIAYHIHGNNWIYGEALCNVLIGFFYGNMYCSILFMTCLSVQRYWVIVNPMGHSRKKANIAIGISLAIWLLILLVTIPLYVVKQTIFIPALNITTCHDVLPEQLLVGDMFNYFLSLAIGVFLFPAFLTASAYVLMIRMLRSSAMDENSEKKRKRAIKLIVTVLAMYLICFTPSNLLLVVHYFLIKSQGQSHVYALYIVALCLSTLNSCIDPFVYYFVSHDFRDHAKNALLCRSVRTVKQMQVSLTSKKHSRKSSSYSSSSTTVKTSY
The experiment can be described thus: Assay of PAR-2 activation using inositol phosphates as an indicator in NCTC2544 cells with stably high expression of PAR-2. Format: cell-based. The following applies: subject substance added 15 min before stimulation. The text has this:
The invention also provides a novel method for measuring PAR-2 activity. PAR-2 belongs to G-protein-coupled receptor (GPCR) family, and produces inositol phosphates as a second messenger upon activation of the receptor. Based on this mechanism, the effects of subject substances in activation of PAR-2 can be determined quantitatively by quantifying produced inositol phosphates in PAR2-expressing cells by an ion chromatography or the like.
NCTC2544 cells with stably high expression of PAR-2 were cultured in the serum-free medium containing […]/ml of [^3H]-myo-inositol for 18 hours. Lithium chloride (final […]) was added 30 min before the stimulation, and subsequently cells were stimulated with trypsin (1 to 30 nM) or the PAR-2 agonist peptide, SLIGKV (10 to 300 μM). After 45 min the lipid component was extracted with methanol and separated using an anion exchanging resin (AG1-X, formate form). Then the yield of inositol phosphates was determined in a scintillation counter. The subject substance was added 15 min before the stimulation.

B1: trypsin inhibitor derived from soybeans: a trypsin inhibitor derived from soybeans, used as subject substance in the PAR-2 inositol phosphate assay (protein, UniProt P01070 25-205, looked up)
Trypsin inhibitor A: DFVLDNEGNPLENGGTYYILSDITAFGGIRAAPTGNERCPLTVVQSRNELDKGIGTIISSPYRIRFIAEGHPLSLKFDSFAVIMLCVGIPTEWSVVEDLPEGPAVKIGENKDAMDGWFRLERVSDDEFNNYKLVFCPQQAEDDKCGDIGISIDHDDGTRRLVVSKNKPLVVQFQKLDKESL
As to B1, the “SLIGKV-mediated activation of PAR-2 (inositol phosphate production)” value (stimulation with PAR-2 activating peptide SLIGKV) is on record as “not affected”. In addition, the “Trypsin-mediated activation of PAR-2 (inositol phosphate production)” value (stimulation with trypsin) is given as “inhibited”.
